Measured values published in the supplement of paper PMC9112550, “Optimization of the antimicrobial peptide Bac7 by deep mutational scanning” (BMC Biology, 2022).

Tested on: Escherichia coli TOP10
Test: shrunken log2 fold change of peptide-encoding DNA abundance (4.5 h post-induction vs induction); higher = less antimicrobial activity (less host growth inhibition)
Conditions: time post-induction: 4.5 h; library: site-saturation at positions 5, 18, 19, 20
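Further: peptides expressed intracellularly from a pBAD plasmid library in pooled LB shake-flask culture, induced with 0.3% L-arabinose, DNA abundance read by NGS, three biological replicates, DESeq2 with apeglm shrinkage.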

Sequence | shrunken log2 fold change
RRIRCRPPRLPRPRPRPGGLPRP | 0.17
RRIRARPPRLPRPRPRPQKGPRP | 0.0244
RRIRMRPPRLPRPRPRPFHRPRP | -0.114
RRIRWRPPRLPRPRPRPAHEPRP | 0.1
RRIRARPPRLPRPRPRPKVDPRP | -0.0797
RRIRYRPPRLPRPRPRPDFAPRP | 0.0515
RRIRPRPPRLPRPRPRPINKPRP | -0.641
RRIRMRPPRLPRPRPRPEIRPRP | -0.0241
RRIRGRPPRLPRPRPRPASTPRP | 0.653
RRIRCRPPRLPRPRPRPQTSPRP | -0.209
RRIRIRPPRLPRPRPRPGIYPRP | -0.585
RRIRTRPPRLPRPRPRPPFTPRP | 0.0073
RRIRVRPPRLPRPRPRPKWPPRP | 0.4
RRIRGRPPRLPRPRPRPWQEPRP | -0.0457
RRIRRRPPRLPRPRPRPFMTPRP | 0.0665
RRIRDRPPRLPRPRPRPSIGPRP | 0.154
RRIRVRPPRLPRPRPRPLNNPRP | -0.733
RRIRYRPPRLPRPRPRPDLNPRP | -0.0755
RRIRWRPPRLPRPRPRPCINPRP | -0.374
RRIRSRPPRLPRPRPRPSYYPRP | -0.529
RRIRIRPPRLPRPRPRPIRYPRP | -0.125
RRIRKRPPRLPRPRPRPWFMPRP | -0.202
RRIRYRPPRLPRPRPRPVLDPRP | -0.265
RRIRKRPPRLPRPRPRPECIPRP | 0.0177
RRIRFRPPRLPRPRPRPDKHPRP | -0.478

Sequence | shrunken log2 fold change
RRIRCRPPRLPRPRPRPKWAPRP | 0.0877
RRIRQRPPRLPRPRPRPYDYPRP | -0.133
RRIRRRPPRLPRPRPRPWIMPRP | 0.0607
RRIRRRPPRLPRPRPRPQPGPRP | 0.264
RRIRYRPPRLPRPRPRPCYSPRP | -0.00871
RRIRPRPPRLPRPRPRPWYKPRP | 0.215
RRIRERPPRLPRPRPRPKIIPRP | 0.357
RRIRDRPPRLPRPRPRPRWTPRP | 0.289
RRIRQRPPRLPRPRPRPRLYPRP | 0.0786
RRIRGRPPRLPRPRPRPCPAPRP | 0.383
RRIRSRPPRLPRPRPRPMCEPRP | -0.0274
RRIRLRPPRLPRPRPRPKMHPRP | 0.0307
RRIRQRPPRLPRPRPRPAGGPRP | 0.204
RRIRERPPRLPRPRPRPDHEPRP | -0.0943
RRIRHRPPRLPRPRPRPTVQPRP | 0.118
RRIRMRPPRLPRPRPRPEPFPRP | 0.427
RRIRDRPPRLPRPRPRPICVPRP | -0.109
RRIRWRPPRLPRPRPRPLQYPRP | -0.133
RRIRMRPPRLPRPRPRPDASPRP | 2.43
RRIRDRPPRLPRPRPRPRDYPRP | 0.0389
RRIRIRPPRLPRPRPRPQWLPRP | -0.0168
RRIRNRPPRLPRPRPRPCAGPRP | -0.123
RRIRIRPPRLPRPRPRPARYPRP | -0.264
RRIRYRPPRLPRPRPRPNYCPRP | -1.16
RRIRVRPPRLPRPRPRPNSWPRP | 0.0957

Sequence | shrunken log2 fold change
RRIRMRPPRLPRPRPRPDYIPRP | -0.354
RRIRCRPPRLPRPRPRPEKSPRP | 0.0445
RRIRQRPPRLPRPRPRPWKWPRP | -0.299
RRIRSRPPRLPRPRPRPWRQPRP | 0.11
RRIRLRPPRLPRPRPRPHDPPRP | -0.459
RRIRYRPPRLPRPRPRPMLLPRP | -0.871
RRIRPRPPRLPRPRPRPTMLPRP | -0.114
RRIRSRPPRLPRPRPRPDWVPRP | 0.305
RRIRHRPPRLPRPRPRPKKKPRP | -0.0281
RRIRLRPPRLPRPRPRPSWYPRP | -0.294
RRIRYRPPRLPRPRPRPGLEPRP | 0.114
RRIRSRPPRLPRPRPRPGSRPRP | 0.297
RRIRTRPPRLPRPRPRPCEIPRP | 0.0393
RRIRSRPPRLPRPRPRPLSEPRP | -0.48
RRIRCRPPRLPRPRPRPSMYPRP | -0.418
RRIRFRPPRLPRPRPRPILNPRP | -0.692
RRIRSRPPRLPRPRPRPHIRPRP | -0.632
RRIRRRPPRLPRPRPRPWKMPRP | -0.00577
RRIRYRPPRLPRPRPRPCIGPRP | -0.644
RRIRCRPPRLPRPRPRPEQNPRP | 0.268
RRIRDRPPRLPRPRPRPPGPPRP | 1.9
RRIRDRPPRLPRPRPRPTEAPRP | 0.405
RRIRMRPPRLPRPRPRPVDPPRP | 0.0473
RRIRERPPRLPRPRPRPCKIPRP | -0.00331
RRIRLRPPRLPRPRPRPMQYPRP | -0.208
